Experimental findings from FireProtDB (doi:10.1093/protein/12.3.251) are described below.

The term Tm denotes the temperature at which the thermal transition is half complete.

The chains are these.
B1: Endo-1,4-beta-xylanase A, P26514 (parent)
chain: MGSYALPRSGVRRSIRVLLLALVVGVLGTATALIAPPGAHAAESTLGAAAAQSGRYFGTAIASGRLSDSTYTSIAGREFNMVTAENEMKIDATEPQRGQFNFSSADRVYNWAVQNGKQVRGHTLAWHSQQPGWMQSLSGSALRQAMIDHINGVMAHYKGKIVQWDVVNEAFADGSSGARRDSNLQRSGNDWIEVAFRTARAADPSAKLCYNDYNVENWTWAKTQAMYNMVRDFKQRGVPIDCVGFQSHFNSGSPYNSNFRTTLQNFAALGVDVAITELDIQGAPASTYANVTNDCLAVSRCLGITVWGVRDSDSWRSEQTPLLFNNDGSKKAAYTAVLDALNGGDSSEPPADGGQIKGVGSGRCLDVPDASTSDGTQLQLWDCHSGTNQQWAATDAGELRVYGDKCLDAAGTSNGSKVQIYSCWGGDNQKWRLNSDGSVVGVQSGLCLDAVGNGTANGTLIQLYTCSNGSNQRWTRT

In the data set the parent is B1. The settings on record: Streptomyces lividans; pH 6; Thermal; CD; sodium phosphate 10 mM; structure 1XAS; whole UniProt chain shown.

On to W126F, for which the midpoint of thermal melting (Tm) was 64 °C and the “change of melting temperature, mutant - wild type (higher = more stable)” value (“change of melting temperature, mutant” below) is -4 °C.

As to W126H, the Tm turned out to be 67 °C and the “change of melting temperature, mutant” value is -1 °C.

For the variant W126A, the Tm turned out to be 70 °C and the “change of melting temperature, mutant” value stood at 2 °C.

In the case of W307H, the Tm stood at 60.7 °C and the “change of melting temperature, mutant” value was -7.3 °C.

Turning to W307F, the Tm worked out at 64.7 °C and the “change of melting temperature, mutant” value was -3.3 °C.

With W307A, the Tm was found to be 63.3 °C and the “change of melting temperature, mutant” value is -4.7 °C.

Regarding Y213A, the Tm came to 63 °C and the “change of melting temperature, mutant” value is -5 °C.

Consider Y213F, for which the Tm turned out to be 67.1 °C and the “change of melting temperature, mutant” value is -0.9 °C.

On to Y213S, for which the midpoint of thermal melting (Tm) amounted to 69.6 °C and the “change of melting temperature, mutant” value was 1.6 °C.

Regarding W315F, the melting temperature (Tm) turned out to be 68.8 °C and the “change of melting temperature, mutant” value was found to be 0.8 °C.

For W315A, the midpoint of thermal melting (Tm) stood at 72.1 °C and the “change of melting temperature, mutant” value turned out to be 4.1 °C.

As to W315H, the melting temperature (Tm) stood at 68.2 °C and the “change of melting temperature, mutant” value came out at 0.2 °C.
